According to US20090068110A1, “ANTIBODIES TO INSULIN-LIKE GROWTH FACTOR RECEPTOR” (Genentech, Inc., priority 2006, published 2009):
Substitutions are numbered along the chain they refer to.

B1: chimeric 9F2-IgG (antibody, V domains shown)
VH: QIQLVQSGPELKKPGETVKISCKASGYTLANYGMNWVKQAPGKGFKWMGWINTNTGKPTYSDEFKGRFVFSLETSASTAYLLINNLSNEDTATYFCARSIYYYGSRYFNVWGAGTT
VL: DIQMTQSTSSLSASLGDRVTISCRASQDINNYLTWYQQKPDGTVKLLIYYTSRLHSGVPSRFSGSGSGTDYSLTITNLEQEDFATYFCQQGNTLPWTFGEGTKVEIKR
notes: also called human chimeric 9F2
B2: chimeric 9F2: human chimeric version of murine 9F2, human IgG1 (antibody, V domains shown)
VH: B1 VH
VL: B1 VL
B3: chimeric 10H5: human chimeric version of murine 10H5, human IgG1 (antibody, V domains shown)
VH: QVQLQQPGAELVKPGASVTLSCKASGYTFTRFWIHWVKQRPGQGLEWIGEINPSNGRTNYNENFKNKATLTVDTSSSTAYMQLSSLTSEVSVVYYCARGGRLDQWGQGTT
VL: DIVMTQSQKFMSTSLGDRVSVTCKASQNVGSNVAWYQQKPGQSPEALIYSASYRYSGVPDRFTGSGSGTDFTLTISNVQSEDLAEYFCHQYNNYPYTFGGGTKVEIKR
B4: 2B4: mouse monoclonal anti-IGF-1R antibody from hybridoma 2B4.2.8, ATCC PTA-7009 (antibody, V domains shown)
VH: QIQLVQSGPELKKPGETVKISCKASGYNLANYGLNWVKQAPGEGLKWMGWINTNTGAPTYAEEFKGRFVFFLETSASTAYLQINNLSDEDTATYFCARSIYYYASRYFNVWGAGTS
VL: B1 VL with S7T, R18K, N30S, T34N, V44I, V58I, T76S, F83I, E100G

What was measured:
[1] = biological target: cynomolgus-monkey IGF-1R (cynomolgus monkey, UniProt G7P9I7 31-908); test: BIACORE surface plasmon resonance: IGF-1R immobilized on CM5 chip (about 500 RU), IgG injected 250-0.78 nM, 25 C, 1:1 Langmuir model (apparent affinity)
[2] = test system: MCF7 cells; test: cell viability assay ([…]-GLO), MCF7; type: cell-based, human; conditions: in the presence of IGF-I
Experimental: The different cell lines were cultured in their respective culture media at 37° C. in a humidified atmosphere of 5% CO2. Subsequently, cells were detached from tissue-culture flasks using the cell-dissociation solution, TRIPLE SELECT™ solution (InVitrogen, Carlsbad, Calif., USA), and centrifuged at 1000 rpm for five minutes. Detached cells were washed once with PBS, counted, and seeded in 96-well plates (Corning, N.Y., USA) at 2000 cells per well in 100 μL of culture media. After an overnight incubation at 37° C. in a humidified atmosphere of 5% CO2, the cell-culture medium was replaced with 50 μL of starvation medium consisting of serum-free RPMI 1640™ medium without phenol red. The cells were then starved for five hours in the incubator before addition of 25 μL of each anti-IGF-1R monoclonal antibody at various dilutions in serum-free RPMI 1640™ phenol red-free media. Later, 25 μL of phenol red-free RPMI 1640™ media supplemented with 4% of fetal bovine serum (FBS) (Sigma) with or without 4 ng/ml of human recombinant IGF-I were added on top of the 50 μL of antibody. The cells were then placed at 37° C. with 5% CO2 for 5 to 6 days. At the end of the assay, cell viability was measured using the […]-GLO® kit according to the manufacturer's instructions (Promega, Madison, Wis., USA).
For the cell viability assay, MCF7 cells were seeded onto 96-well plates at 2000 cells/well and incubated overnight at 37° C. in a humidified atmosphere of 5% CO2/95% air in RPMI 1640™ medium supplemented with 10% FBS (Sigma, St. Louis, Mo.) and 1% GLUTAMAX™ reagent (Promega, Madison, Wis.). The next day cells were starved in serum-free RPMI 1640™ medium (phenol red-free) for five hours followed by addition of serially diluted human chimeric versions of 9F2, 2B4, and 10H5, as well as h10H5.vX, for one hour. Subsequently, phenol red-free PRMI 1640™ medium supplemented with FBS or IGF-I was added to reach a final concentration of 1% FBS and 1 ng/mL IGF-I. Cells were then incubated with continuous IGF-1R antibody exposure. After five days, the cell viability was then determined using a […]-GLO™ kit (Promega, Madison, Wis.) according to the manufacturer's instructions.

[3] = biological target: T1, IGF-1R (Homo sapiens, UniProt P08069); test: antibody-induced IGF-1R down-regulation in MCF7 cells, Western blotting; type: cell-based; parameters: IGF-1R is normally localized at the plasma membrane of MCF7 cells; endogenous in cells; host or cells: MCF7; conditions: 10 μg/ml, 1, 4, 8 or 24 hours, 10% serum
Experimental: Further exploration of the mechanism of action of anti-IGF-1R antibodies was carried out by testing the ability of the antibodies of the invention, particularly human chimeric antibodies of 2B4, 9F2, 10H5, as well as human phage antibody YW95.6, to induce IGF-1R down-regulation. MCF7 cells were treated with various antibodies (10 μg/ml) for 1, 4, 8, or 24 hours in the presence of 10% serum-containing medium. The cell lysates were harvested, separated by SDS-PAGE, and analyzed for IGF-1R levels by Western blotting using an anti-IGF-1R beta-chain antibody (Cell Signaling Technology, Inc.; Beverly, Mass., USA) or anti-beta-actin antibody.
In a separate experiment, MCF7 cells were treated with serially diluted h10H5, and the cell lysates were analyzed for IGF-1R and IR levels using anti-IGF-1R and anti-IR β-chain antibodies at 1, 2, 4, and 8 hours post-continuous treatment.

[4] = test system: cynomolgus-monkey IGF-1R; test: BIACORE surface-plasmon resonance, cynomolgus-monkey IGF-1R; type: binding; conditions: IgG, FIG. 15
Experimental: Binding affinities of selected antibodies to IGF-1R were determined by surface plasmon resonance measurements on a BIACORE™ 3000 instrument (BIAcore, Inc.). Human, murine, or cynomolgus-monkey IGF-1R was immobilized at a density of about 500 RU on the flow cells of a PIONEER™ CM5 sensor chip. Immobilization was achieved by random coupling through amino groups using a protocol provided by the manufacturer. Sensorgrams were recorded for binding of anti-IGF-1R Fab or IgG to these surfaces by injection of a series of solutions ranging from 500 nM to 3.1 nM and 250 nM to 0.78 nM in two-fold increments, respectively. The signal from the reference cell was subtracted from the observed sensorgram. Kinetic constants were calculated by non-linear regression analysis of the data according to a 1:1 Languir binding model using software supplied by the manufacturer.

[5] = test system: IGF-1R signaling (phospho-IGF-1R, AKT, ERK1/2); test: Western blotting of IGF-1R signaling in MCF7 cells; type: cell-based, human
Experimental: Also examined was the effect of these antibodies on ligand-dependent IGF-1R signaling by directly analyzing IGF-1R phosphorylation as well as major downstream pathways, such as AKT and MAPK activation. In this assay, MCF7 cells were grown in 6-well plates and serum was withdrawn for 16 hours. […] The cells were directly lysed in SDS sample buffer, and the lysate was analyzed by Western blotting using antibodies against IGF-1R, phospho-IGF-1R, AKT, phospho-AKT, ERK1/2, phospho-ERK1/2 (also called MAPK1/2 and phospho-MAPK1/2) (all from Cell Signaling Technology, Inc.; Beverly, Mass., USA).
For the IGF-1R signaling pathway analysis, MCF7 cells were grown in six-well plates for 24 hours and then serum starved (serum-free and phenol-free RPMI medium supplemented with 1 mg/mL BSA) overnight. The cells were first incubated with h10H5 for 20 minutes, then stimulated with 50 ng/mL IGF-1 or 100 ng/mL IGF-11 for ten minutes. Cells were directly lysed in SDS sample buffer to preserve protein phosphorylation. After brief sonication, the lysates were separated by SDS-PAGE and transferred to nitrocellulose membranes (Invitrogen; Carlsbad, Calif.), which were probed with anti-phospho-IGF-1R, AKT, and ERK1/2 antibodies. The same blots were then stripped using Stripping Buffer™ (Pierce Biotechnology; Rockford, Ill.) and re-probed with antibodies against total IGF-1R β, AKT, and ERK1/2.

[6] = biological target: T2, human IGF-1R-ECD (Homo sapiens, UniProt P08069); test: competitive ELISA, blocking of IGF-I/II and IGF-1R interaction; type: binding; conditions: antibody 100 nM to 0.0976 nM, biotinyl-IGF-I or IGF-II 60 ng/ml
T2 construct: containing the extracellular domain (ECD, amino acids 1-902) tagged with 10 or 12 histidine residues at the carboxyl terminus; His10 or His12 (C); made in house; host or cells: CHO cells
Experimental: To determine whether the anti-IGF-1R antibodies could block ligand/receptor interaction, competitive ELISA was utilized. Human IGF-1R-ECD was coated overnight at 4° C. at 1 μg/ml in a 96-well immunoplate (Nalge Nunc International, Rochester, N.Y., USA). The ELISA plate was washed with wash buffer (PBS, 0.05% TWEEN™ 20 surfactant, pH 7.4), and 150 μl/well of blocking buffer (PBS with 0.5% BSA) was added for one hour at room temperature with gentle agitation. Purified anti-IGF-1R antibodies were first subjected to a two-fold dilution from 100 nM to 0.0976 nM in assay buffer (PBS, 0.5% BSA and 0.05% TWEEN™ 20 surfactant, pH 7.4) and added to the immunoplate to incubate at room temperature for one hour. Biothinyl-IGF-I or IGF-II at 60 ng/ml concentrations (Cell Science, Canton, Mass., USA) was then added and incubated for another 30 minutes. The ELISA plate was washed three times, and 100 μl/well of streptavidin-HRP (GE Healthcare, Piscataway, N.J., USA) at a dilution of 1:6,000 was added for 20 minutes. Color development was conducted as described in conjunction with the direct ELISA. The selected anti-IGF-1R antibodies inhibited IGF-I or IGF-II binding to IGF-1R to various degrees (FIGS. 19A and 19B for IGF-I and IGF-II, respectively).

[7] = biological target: T1, IGF-1R; test: KIRA assay of IGF-1R phosphorylation in MCF7 cells; type: cell-based; parameters: IGF-1R is normally localized at the plasma membrane of MCF7 cells; endogenous in cells; host or cells: MCF7; conditions: IGF-I 10 ng/ml or IGF-II 50 ng/ml; ranking upon IGF-II stimulation
Experimental: Also examined was whether the blocking activity of these antibodies was sufficient to interfere with receptor activation, which is measured by IGF-1R phosphorylation. A KIRA assay (kinase receptor activation) was utilized to perform quantitative analysis of IGF-1R phosphorylation in MCF7 cells. Anti-IGF-1R antibodies in serial dilutions (0.19 to 200 nM in medium) were added to MCF7 cells in 96-well plates for one hour. IGF-I (10 ng/ml) or IGF-11 (50 ng/ml) was subsequently added and incubated for ten minutes. The cells were lysed, and the resulting lysates were transferred to an ELISA plate, which was coated with IGF-1R-capturing antibody 3B7 (250 ng/well). After incubation for two hours, the cell lysate was removed, and the plates were washed. Phosphotyrosine-specific antibody 4G10 (Upstate, Charlottesville, Va., USA) was added to detect IGF-1R phosphorylation through TMB peroxidase substrate.

Chain of cynomolgus-monkey IGF-1R (cynomolgus monkey, UniProt G7P9I7 31-908) (G7P9I7 entry or part of it): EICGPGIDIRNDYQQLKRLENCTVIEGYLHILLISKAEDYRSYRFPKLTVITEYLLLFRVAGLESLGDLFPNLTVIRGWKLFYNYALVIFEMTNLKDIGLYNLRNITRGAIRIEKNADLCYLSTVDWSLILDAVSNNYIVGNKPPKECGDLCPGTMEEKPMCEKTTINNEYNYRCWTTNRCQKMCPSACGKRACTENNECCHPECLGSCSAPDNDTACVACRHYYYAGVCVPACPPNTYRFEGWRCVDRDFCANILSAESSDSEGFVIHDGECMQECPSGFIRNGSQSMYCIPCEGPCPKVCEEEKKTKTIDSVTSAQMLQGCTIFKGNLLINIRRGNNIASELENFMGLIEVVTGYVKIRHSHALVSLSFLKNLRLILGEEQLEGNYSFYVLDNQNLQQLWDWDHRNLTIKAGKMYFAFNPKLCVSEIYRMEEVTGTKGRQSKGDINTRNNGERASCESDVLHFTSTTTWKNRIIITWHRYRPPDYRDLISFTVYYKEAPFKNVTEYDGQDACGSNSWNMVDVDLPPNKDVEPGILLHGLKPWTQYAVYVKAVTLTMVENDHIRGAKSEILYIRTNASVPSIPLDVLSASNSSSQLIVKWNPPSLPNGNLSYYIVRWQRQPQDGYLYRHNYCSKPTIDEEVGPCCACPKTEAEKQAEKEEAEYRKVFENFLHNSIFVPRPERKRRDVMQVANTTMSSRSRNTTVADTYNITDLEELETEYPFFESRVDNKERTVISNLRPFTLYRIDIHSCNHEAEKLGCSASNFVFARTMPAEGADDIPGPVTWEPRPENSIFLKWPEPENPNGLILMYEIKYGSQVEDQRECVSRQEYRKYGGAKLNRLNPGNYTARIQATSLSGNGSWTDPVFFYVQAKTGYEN

Row | Molecule | comparison of inhibitory effect on MCF7 proliferation / viability [2] | IGF-1R down-regulation [3] | binding to human versus cyno IGF-1R [4] | also measured
1 | B1 | – | – | – | Kd [1]: 0.17 nM
2 | B2 | equivalent at decreasing the MCF7 cell viability | rapidly down-regulated and reached maximal reduction by eight hours | comparable for human and cyno IGF-1R | –
3 | B3 | equivalent at decreasing the MCF7 cell viability | rapidly down-regulated and reached maximal reduction by eight hours | comparable for human and cyno IGF-1R | –
4 | B4 | – | – | – | inhibition of IGF-I-mediated AKT activation ([5]; serum-starved MCF7, IGF-I 50 ng/ml): potently prevented AKT activation; inhibition of IGF-II-mediated IGF-1R phosphorylation and downstream AKT and MAPK1/2 activation ([5]; serum-starved MCF7, IGF-II 100 ng/ml): remained as strong inhibitors; inhibition of IGF-I or IGF-II binding to IGF-1R [6]: most potent group; inhibition of IGF-I/II-mediated IGF-1R phosphorylation (KIRA) [7]: most effective group
